Target: Ptch1-GFP (mouse) (UniProt Q61115)
Assay: cell surface binding assay

Sequence of UniProt Q61115 (Q61115 whole entry): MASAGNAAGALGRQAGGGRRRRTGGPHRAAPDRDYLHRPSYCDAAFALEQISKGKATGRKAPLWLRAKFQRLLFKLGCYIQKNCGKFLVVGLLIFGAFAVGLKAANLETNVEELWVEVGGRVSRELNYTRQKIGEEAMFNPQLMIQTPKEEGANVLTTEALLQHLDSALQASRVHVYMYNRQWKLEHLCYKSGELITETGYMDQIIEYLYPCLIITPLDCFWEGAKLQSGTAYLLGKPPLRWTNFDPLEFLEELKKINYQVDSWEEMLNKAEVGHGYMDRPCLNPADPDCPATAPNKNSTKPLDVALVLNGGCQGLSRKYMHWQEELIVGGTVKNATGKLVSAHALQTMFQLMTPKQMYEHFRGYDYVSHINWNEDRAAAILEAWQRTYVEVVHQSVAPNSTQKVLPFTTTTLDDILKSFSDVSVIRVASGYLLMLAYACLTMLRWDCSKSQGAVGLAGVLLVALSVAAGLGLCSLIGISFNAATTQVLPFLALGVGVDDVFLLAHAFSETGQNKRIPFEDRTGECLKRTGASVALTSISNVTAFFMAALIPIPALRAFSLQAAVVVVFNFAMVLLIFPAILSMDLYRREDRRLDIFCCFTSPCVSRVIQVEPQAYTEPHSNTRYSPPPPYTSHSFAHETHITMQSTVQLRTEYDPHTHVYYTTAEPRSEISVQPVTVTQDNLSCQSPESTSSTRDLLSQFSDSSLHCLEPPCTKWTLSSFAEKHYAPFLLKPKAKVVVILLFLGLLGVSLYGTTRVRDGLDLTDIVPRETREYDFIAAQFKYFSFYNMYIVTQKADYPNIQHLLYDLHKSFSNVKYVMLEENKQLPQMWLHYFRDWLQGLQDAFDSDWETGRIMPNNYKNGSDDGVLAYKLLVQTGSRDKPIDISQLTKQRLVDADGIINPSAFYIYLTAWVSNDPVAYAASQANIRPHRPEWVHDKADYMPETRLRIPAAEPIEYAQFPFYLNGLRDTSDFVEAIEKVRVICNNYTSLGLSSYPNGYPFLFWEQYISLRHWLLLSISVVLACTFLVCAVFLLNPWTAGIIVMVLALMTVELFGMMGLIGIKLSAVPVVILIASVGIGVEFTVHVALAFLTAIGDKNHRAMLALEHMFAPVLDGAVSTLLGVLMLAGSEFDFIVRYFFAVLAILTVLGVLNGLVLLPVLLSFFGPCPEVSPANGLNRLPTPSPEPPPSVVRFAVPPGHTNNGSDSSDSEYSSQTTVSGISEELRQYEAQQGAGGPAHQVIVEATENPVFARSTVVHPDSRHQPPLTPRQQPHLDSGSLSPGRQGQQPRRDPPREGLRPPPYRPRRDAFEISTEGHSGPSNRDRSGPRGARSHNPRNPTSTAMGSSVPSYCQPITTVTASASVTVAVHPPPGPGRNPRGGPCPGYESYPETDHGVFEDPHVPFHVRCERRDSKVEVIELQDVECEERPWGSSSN

How did the binding relative to Boc ecto-Fc turn out when “Boc-Fc construct containing the FNIIIa domain alone (Fc fusion)” was run?
The binding relative to Boc ecto-Fc was 60%.

How did the binding relative to Boc ecto-Fc turn out when “Boc-Fc construct containing the FNIIIb domain alone (Fc fusion)” was run?
Its binding relative to Boc ecto-Fc is 60%.

Reference: article PMC3432913
